Series [1] deals with the molecule itself. Nature of the series: SEC; analytical SEC of isolated oligomers, Superdex 200 increase, 10 µmol/L protein in 20 mmol/L NaPi, 0.2 mmol/L EDTA, pH 8.0; number of subunits estimated from the peak maximum and its full width at half maximum.
The target of series [2] is T1, porcine heart citrate synthase (pig, UniProt P00889 28-464).
T1 construct: citrate synthase from porcine heart; Partly unfolded by incubation at 45 °C when it meets the chaperone; also called CS; source: bought: Sigma-Aldrich (porcine heart)
T1 sequence (looked up): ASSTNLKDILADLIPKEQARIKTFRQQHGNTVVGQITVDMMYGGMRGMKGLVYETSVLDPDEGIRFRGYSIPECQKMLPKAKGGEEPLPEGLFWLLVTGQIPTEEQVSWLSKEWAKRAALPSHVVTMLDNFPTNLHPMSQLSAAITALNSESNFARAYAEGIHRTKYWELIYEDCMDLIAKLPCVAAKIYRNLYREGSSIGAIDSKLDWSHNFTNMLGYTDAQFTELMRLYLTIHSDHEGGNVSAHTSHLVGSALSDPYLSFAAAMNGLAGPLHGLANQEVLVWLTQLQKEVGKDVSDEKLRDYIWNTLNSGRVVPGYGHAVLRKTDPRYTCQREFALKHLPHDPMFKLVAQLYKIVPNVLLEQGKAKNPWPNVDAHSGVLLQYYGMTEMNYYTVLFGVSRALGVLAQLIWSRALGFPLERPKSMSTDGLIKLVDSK
Briefly: SEC; 0.6 µmol/L CS incubated with 6 µmol/L rh Bri2 BRICHOS oligomers in 40 mmol/L HEPES/KOH pH 7.5 at 45 °C, then Superose 6 in 20 mmol/L NaPi pH 8.0, 0.2 mmol/L EDTA; fractions by SDS-PAGE (two bands) and native PAGE (one band); negative-stain EM of the complex. Particulars: both partners purified. (In general: Size exclusion chromatography separates by hydrodynamic size, large species first.)

One may read the stoichiometry N as the number of molecules, sites or subunits per partner or assembly.

B1: recombinant human Bri2 BRICHOS domain, wild type (domain or fragment, UniProt Q9Y287 113-231, looked up)
chain: QTIEENIKIFEEEEVEFISVPVPEFADSDPANIVHDFNKKLTAYLDLNLDKCYVIPLNTSIVMPPRNLLELLINIKAGTYLPQSYLIHEHMVITDRIENIDHLGFFIYRLCHDKETYKL
notes: human Bri2, BRICHOS domain, residues 113 to 231; Also exists as monomers and dimers; the oligomer fraction was used with CS; also called wt Bri2 BRICHOS; rh Bri2 BRICHOS; source: recombinant, modified pET32 vector with His6-NT* tag; copies: about 18-30 (oligomers, estimated by SEC)
Take B1: the “stoichiometry N” value in series [1] was 18 to 30 subunits. The binding result in series [2] is “binds”.

B2: rh Bri2 BRICHOS T206W (domain or fragment, human, UniProt Q9Y287 113-231, looked up)
chain: QTIEENIKIFEEEEVEFISVPVPEFADSDPANIVHDFNKKLTAYLDLNLDKCYVIPLNTSIVMPPRNLLELLINIKAGTYLPQSYLIHEHMVIWDRIENIDHLGFFIYRLCHDKETYKL
notes: also called T206W mutant; source: recombinant, modified pET32 vector with His6-NT* tag
Take B2: the binding result in series [1] is reported as “binds”.

Values taken from paper PMC10167226, “Short hydrophobic loop motifs in BRICHOS domains determine chaperone activity against amorphous protein aggregation but not against amyloid formation” (Communications Biology, 2023).
